The values that follow come from patent WO2013125221A1 (dated 2013).

This assay addresses T1, MBP-IGKVDJ3-6×His (MBP fusion human antibody kappa light chain variable region protein, family 3 consensus).
T1 construct: also called MBP-VK3
Kind of assay: SPR (legend of Fig. 12B), control MBP.

T1 sequence (chain, as listed by the source): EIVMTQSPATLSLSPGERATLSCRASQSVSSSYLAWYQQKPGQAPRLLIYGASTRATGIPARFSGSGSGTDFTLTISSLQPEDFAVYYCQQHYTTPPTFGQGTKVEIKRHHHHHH

In the case of WHWNWMRLDPMT [code 15 peptide], the binding result is “binds”.
